In publication PMC3154745:
Blank lines part the entries; values can stand above or below the binder they belong to.

Columns and labels:
[1] = target: T1, Full length HP1a, pET11a construct (AUC) (D. melanogaster), P05205; test: AUC; details: remark: other sources report otherwise
T1 chain: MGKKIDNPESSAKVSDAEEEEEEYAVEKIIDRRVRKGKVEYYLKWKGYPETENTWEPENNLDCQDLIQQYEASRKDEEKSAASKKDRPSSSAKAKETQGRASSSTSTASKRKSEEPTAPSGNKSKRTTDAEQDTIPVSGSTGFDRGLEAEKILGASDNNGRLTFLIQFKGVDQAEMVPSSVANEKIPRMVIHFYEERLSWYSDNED

[2] = target: HP2 peptide with PIWI pentamer, N-terminal fluorescein (D. melanogaster); test: fluorescence polarisation
[3] = target: PIWI peptide with HP2 pentamer, N-terminal fluorescein (D. melanogaster); test: fluorescence polarisation

Kd [1]: 1.4 µM
B1: Full length HP1a, pET11a construct (AUC), P05205 1-206 (natural protein)
chain: T1 chain

Kd [2]: 0.99 µM
Kd [3]: 21.3 µM
B2: HP1a-CSD (residues 131-206), wild type (domain or fragment)
chain: EQDTIPVSGSTGFDRGLEAEKILGASDNNGRLTFLIQFKGVDQAEMVPSSVANEKIPRMVIHFYEERLSWYSDNED
